Assay results reported in patent US9611303B2, “Modified biotin-binding protein” (Japan Tobacco Inc., priority 2009, dated 2017).

Experiments:
[1] = Purification of LATM2 with 2-iminobiotin-agarose; type: binding; conditions: for Recovery rate (%): Iminobiotin-agarose, binding at pH 12, elution with 50 mM NH4OAC (pH 4)
Experimental: LATM2 was purified through a column charged with 2-iminobiotin-agarose (manufactured by Sigma-Aldrich Corp.) in accordance with the method by Hofmann, et al., (1980). IPTG was added to 25 mL of a culture solution of E. coli transformed with each LATM2 in a final concentration of 1 mM to induce expression. The E. coli cells were collected by centrifugation, suspended in 1.5 mL of 50 mM CAPS (pH 12) containing 50 mM NaCl, and then sonicated. To the supernatant of the disrupted cells, 500 μL of 2-iminobiotin-agarose was added, which was then packed in a column. The column was sufficiently washed with 50 mM CAPS (pH 12) containing 500 mM NaCl, and elution was then performed with 50 mM NH4OAC (pH 4).
(§1) The recovery rate in Table 2 was calculated by dividing the amount of LATM2 protein after purification by the amount of LATM2 protein before purification and was expressed by percent by multiplying the quotient by 100. The degree of purification was the ratio of the amount of LATM2 protein to the total amount of proteins in the purified fraction and was expressed by percent by multiplying the ratio by 100. The recovery rates and the degrees of purification in biotin-agarose were the results after binding at pH 7 and elution with an excess amount of biotin.

[2] = Purification of LATM2 with biotin-agarose; type: binding
Experimental: Purification with biotin-agarose (manufactured by Sigma-Aldrich Corp.) was performed by the following procedure. After induced expression of 25 mL of a culture solution of E. coli for each LATM2, the E. coli cells were suspended in 1.5 mL of a 100 mM potassium phosphate buffer (pH 7.0), and then sonicated. To the supernatant of the disrupted cells. 400 μL of biotin-agarose was added, which was followed by upside-down mixing for 1 hr. […]
In TM2 S36A-T78A-D116A, the E. coli cells were suspended in 1.5 mL of 50 mM CAPS (pH 12) containing 50 mM NaCl, and then sonicated. To the disrupted cells, 400 μL of biotin-agarose was added, which was followed by upside-down mixing for 1 hr. The column was sufficiently washed with 50 mM CAPS (pH 12) containing 500 mM NaCl, and elution was then performed with 1 mL of PBS (pH 7.4) containing 10 mM biotin.
In TM2 S36A-D116A, the E. coli cells were suspended in 1.5 mL of a 100 mM potassium phosphate buffer (pH 4.0), and then sonicated. To the pupernatant of the disrupted cells, 400 μL of biotin-agarose was added. Washing was performed with a 100 mM potassium phosphate buffer (pH 4) containing 500 mM NaCl, and elution was performed with 1 mL of PBS (pH 7) containing 10 mM biotin. Biotin binding to LATM2 that has been eluted with an excess amount of biotin was removed by dialysis with a 20 mM potassium phosphate buffer overnight.
as §1

[3] = Subunit association by FPLC on Sephacryl S-100HR; type: physicochemical; conditions: for Structure (identified by FPLC): Sephacryl S-100HR, 50 mM potassium phosphate, 500 mM NaCl; for Sephacryl (mL), elution peak position: tetramer 44 to 47 mL, dimer 51 to 54 mL, monomer 63 to 66 mL
Experimental: In order to analyze the subunit association conditions of LATM2, the molecular weight of each LATM2s was measured by FPLC. Sephacryl S-100HR (manufactured by GE Healthcare) was used as a column, a Gel Filtration Calibration Kit LMW (manufactured by GE Healthcare) was used as molecular weight markers, and 50 mM potassium phosphate containing 500 mM NaCl was used as a buffer.
The positions of the peaks of eluted tetramer were defined to be 44 to 47 mL after injection of WT-TM2 as a control. The peak of an eluted monomer appeared at around 63 to 66 mL and the peak of an eluted dimer appeared at around 51 to 54 mL, from result of loading the molecular weight markers.

Proteinase K = experiment: Protease resistance of LATM2 (SDS-PAGE); conditions: 5 μM Proteinase K, 30° C., 15 min, presence or absence of biotin
Experimental: Throughout the specification, “having protease resistance” refers to that a protein is not enzymatically decomposed or not substantially decomposed by protease treatment. The protease treatment is performed by, for example, proteinase K treatment at 30° C. for 15 min. The term “not enzymatically decomposed” refers to that bands of a tetramer, dimer, and/or monomer of the protein can be clearly detected by SDS-PAGE after enzyme treatment, as in wild-type TM2. That is, a protein not having protease resistance is decomposed into small molecules by protease treatment, and bands of the tetramer, dimer, and monomer are not detected by SDS-PAGE after the protease treatment. […] Accordingly, bands of the tetramer and/or the dimer or monomer generated by dissociation of the tetramer are detected by SDS-PAGE. […] of each of the LATM2s (TM2 S36A, TM2 […], TM2 […], TM2 […], TM2 […], TM2 S36A-[…], TM2 […], and […]) purified by biotin-agarose was subjected to a reaction in 50 mM Tris-HCl (pH 8.0) containing 5 μM Proteinase K and 5 mM CaCl2 at 30° C. for 15 min. […] Then, an SDS buffer was added to each reaction solution, followed by heat treatment at 95° C. for 10 min to terminate the reaction. The resulting sample was subjected to SDS-PAGE, followed by CBB staining.

[4] = Heat resistance of LATM2 by SDS-PAGE; type: physicochemical; conditions: absence of biotin, 20 min in SDS sample buffer
Experimental: The heat resistance of LATM2s was investigated by SDS-PAGE. Each protein was heat treated at predetermined temperatures for 20 min in an SDS sample buffer in the presence or absence of biotin and was then subjected to SDS-PAGE, followed by CBB staining. The heating temperatures in a biotin-free experimental system were 80° C., 82° C., 84° C., 86° C., 88° C., 90° C., 92° C., and 94° C., and heating temperatures in a biotin-containing experimental system were 86° C., 88° C., 90° C., 92° C., 96° C., 98° C., and 100° C.

[5] = pH-dependence of binding to biotin-agarose
Experimental: E. coli cells were collected from 25 mL of an E. coli culture solution in which expression TM2 S36A-D116A was induced with 1 mM IPTG, were suspended in 1.5 mL of a 100 mM potassium phosphate buffer ([…]) or 1.5 mL of a 50 mM CAPS (pH 12.0), and then were sonicated. The disrupted cells were centrifugated, and 400 μL of biotin-agarose was added to the supernatant. […] Furthermore, the TM2 S36A-D116A protein was dissociated from the carrier by increasing the pH of the reaction solution to 7.0 or 12.0 and was recovered at an efficiency of 95%.
TM2 S36A-T78A-D116A was also investigated for its pH-dependence. The protein was suspended in a buffer of pH 4.0 or pH 12.0 and was sonicated. […] By utilizing this property, high purity TM2 S36A-T78A-D116A was obtained by binding the protein to biotin-agarose at pH 4.0 and eluting it at pH 7.0 (FIG. 3B).

[6] = Biotin-binding ability of TM2 D40N
[7] = Biotin-agarose, binding at pH 7, recovery with 10 mM biotin

binding to 2-iminobiotin-agarose [1]	Molecule	Recovery rate (%) [1] [%]	Recover rate (%) [2, 7]	Structure (identified by FPLC) [3]	Sephacryl (mL), elution peak position [3] [mL]	decomposition by Proteinase K (Proteinase K)	Tr value (temperature at which ratio monomer:tetramer becomes 1:1) [4] [°C]	other results
–	TM2 T78A: TM2 in which the 78th threonine was replaced with alanine; SEQ ID NO: 10 (protein, Synthetic TM2 T78A) MSDVQSSLTGTWYNELNSKMELTANKDGTLTGKYLSKVGDVYVPYPLSGRYNLQPPAGQGVALGWAVSWENSKIHSAATWSGQFFSESSPVILTQWLLSSSTARGDVWESTLVGNDSFTKTAPTEQQIAHAQLHCRAPRLK	10	about 95%	tetramer	45.71	hardly decomposed	88	recovery rates compared with WT ([1]; purification with 2-iminobiotin-agarose): inferior to WT; Recover rate (%) ([2]; Biotin-agarose, binding at pH 7, recovery with 10 mM biotin, listed as T78A): 95%; Structure (identified by FPLC) ([3]; listed as T78A): Tetramer
–	WT-TM2: wild-type tamavidin 2, protein comprising the amino acid sequence SEQ ID NO: 2, from Pleurotus cornucopiae (protein, listed as Pleurotus cornucopiae) MSDVQSSLTGTWYNELNSKMELTANKDGTLTGKYLSKVGDVYVPYPLSGRYNLQPPAGQGVALGWAVSWENSKIHSATTWSGQFFSESSPVILTQWLLSSSTARGDVWESTLVGNDSFTKTAPTEQQIAHAQLHCRAPRLK	95	0%	Tetramer	46.23	hardly decomposed	78	binding to biotin-agarose [2]: efficiently adsorbs to biotin-agarose; elution from biotin-agarose with an excess amount of biotin [2]: not eluted; Note (Biotin-agarose) ([2]; binding at pH 7, recovery with 10 mM biotin, FT = flow-through): not eluted
did not bind	TM2 S36A-D116A: TM2 with 36th serine and 116th aspartic acid replaced with alanine; SEQ ID NO: 20 (protein, Synthetic TM2 S36A-D116A) MSDVQSSLTGTWYNELNSKMELTANKDGTLTGKYLAKVGDVYVPYPLSGRYNLQPPAGQGVALGWAVSWENSKIHSATTWSGQFFSESSPVILTQWLLSSSTARGDVWESTLVGNASFTKTAPTEQQIAHAQLHCRAPRLK	0	0%	Tetramer	46.31	approximate a half thereof was decomposed	–	recovery rate by binding at pH 4, elution at pH 7 (without biotin) ([2]; Biotin-agarose): 95%; recovery rate by binding at pH 4, elution at pH 7 (without biotin) ([2]; Biotin-agarose, listed as S36AD116A): recovery rate: 95%; binding to biotin-agarose ([5]; extract at pH 4.0, pH 5.0, or pH 6.0): efficiently bound to biotin-agarose; binding to biotin-agarose ([5]; extract at pH 7.0 or pH 12.0): did not bind to biotin-agarose at all; recovery efficiency on dissociation from the carrier ([5]; increasing the pH to 7.0 or 12.0): 95%
did not bind	TM2 S36A-T78A-D116A: TM2 with 36th serine, 78th threonine and 116th aspartic acid replaced with alanine; SEQ ID NO: 8 (protein, Synthetic TM2 S36A-T78A-D116A) MSDVQSSLTGTWYNELNSKMELTANKDGTLTGKYLAKVGDVYVPYPLSGRYNLQPPAGQGVALGWAVSWENSKIHSAATWSGQFFSESSPVILTQWLLSSSTARGDVWESTLVGNASFTKTAPTEQQIAHAQLHCRAPRLK	0	0%	dimer	51.06	hardly decomposed	–	recovery rate by binding at pH 4 or 12, elution at pH 7 (without biotin) ([2]; Biotin-agarose): recovery rate: 95%; binding to biotin-agarose ([5]; pH 4.0 or pH 12.0): confirm its binding to biotin-agarose; binding to biotin-agarose ([5]; pH 7.0): did not bind to biotin-agarose at all; Structure (identified by FPLC) ([3]; listed as S36AT78AD116A): Dimer
–	TM2 D40N: TM2 having modification of the 40th aspartic acid to asparagine (protein) MSDVQSSLTGTWYNELNSKMELTANKDGTLTGKYLSKVGNVYVPYPLSGRYNLQPPAGQGVALGWAVSWENSKIHSATTWSGQFFSESSPVILTQWLLSSSTARGDVWESTLVGNDSFTKTAPTEQQIAHAQLHCRAPRLK	–	–	–	–	–	–	biotin-binding ability relative to TM2 [6]: increases
